In US20140105889A1 (published 2014):
Where a chain is given by its changes, count along the chain named. Each block holds one binder with its values, some of them ahead of it.

Experiments:
human FcγRIIb [1] = biological target: T1, human FcγRIIb (human, UniProt P31994 43-217); experiment: SPR (Biacore); KD of parent IL6R-B3/IL6R-L for FcγRIIb divided by KD of the variant for FcγRIIb
T1 construct: also called FcγIIB
T1 sequence: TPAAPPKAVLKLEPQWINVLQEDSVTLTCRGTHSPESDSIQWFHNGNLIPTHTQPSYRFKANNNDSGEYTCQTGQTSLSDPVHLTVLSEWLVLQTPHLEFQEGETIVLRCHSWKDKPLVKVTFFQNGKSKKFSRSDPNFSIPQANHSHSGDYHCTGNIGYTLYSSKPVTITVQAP
Source text: (§1) Furthermore, KD(IIaR)/KD(IIb) and KD(IIaH)/KD(IIb) in the table respectively represent the value obtained by dividing the KD value of each variant for FcγRIIaR by the KD value of each variant for FcγRIIb, and the value obtained by dividing the KD value of each variant for FcγRIIaH by the KD value of each variant for FcγRIIb.

[2] = biological target: T2, human FcγRIIIa type V (allotype V158) (human, UniProt P08637 17-208, limits assumed); experiment: SPR (Biacore), antibody captured on the chip, FcγR as analyte
T2 construct: the assay used allotype V158; also called FcγRIIIaV; FcγRIIIa(V)

[3] = biological target: T3, human FcγRIIa type H (allotype H131) (human, UniProt P12318 36-217); experiment: as above
T3 construct: also called FcγRIIaH; FcγRIIa(H)
T3 sequence: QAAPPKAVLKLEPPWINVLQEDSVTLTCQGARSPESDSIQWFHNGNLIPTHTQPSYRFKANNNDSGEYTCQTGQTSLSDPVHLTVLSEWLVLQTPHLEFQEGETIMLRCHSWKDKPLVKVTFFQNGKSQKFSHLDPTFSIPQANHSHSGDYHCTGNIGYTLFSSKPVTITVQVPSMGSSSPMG

mouse FcγRIV = biological target: T4, mouse FcγRIV (mouse); experiment: SPR (Biacore), antibody captured on Protein L, mouse FcγR as analyte, pH 7.4, 25 C
T4 construct: Bought soluble receptor; also called mFcgRIV; mFcgR IV
Procedure: Binding activity between the antibodies and mouse FcγRI, FcγRII, FcγRIII and FcγRIV (R&D Systems, Sin θ Biological) (hereinafter referred to as mouse FcγRs) was evaluated using the Biacore T100 or T200 (GE Healthcare). The antibodies being tested were captured by Protein L (ACTIGEN) that was immobilized in suitable amounts on the CM4 Sensor Chip (GE Healthcare) by amine coupling. Next, the diluted mouse FcγRs and a running buffer used as a blank were injected to allow interaction with the antibody captured on the sensor chip. A buffer consisting of 20 mmol/L ACES, 150 mmol/L NaCl and 0.05% (w/v) Tween 20 (pH 7.4) was used for the running buffer, and this buffer was also used to dilute the mouse FcγRs. 10 mmol/L glycine-HCl (pH 1.5) was used to regenerate the sensor chip. All measurements were carried out at 25° C.

human FcγRIIb [4] = biological target: T5, human FcγRIIb (human, UniProt P31994 43-217, limits assumed); experiment: SPR KD for FcγRIIb of parent IL6R-B3/IL6R-L divided by that of this variant
T5 construct: also called FcγIIB; hFcgRIIb
T5 sequence: T1 sequence
Source text: as §1

human FcRn = biological target: T6, human FcRn (human); experiment: SPR (Biacore), pH 7.0, 25 C, antibody captured by Protein L, human FcRn as analyte
T6 construct: also called hFcRn; soluble human FcRn complexed with β2-microglobulin
Procedure: A kinetic analysis of binding between human FcRn and the aforementioned antibodies was carried out using the Biacore T100 or T200 (GE Healthcare). The antibodies being tested were captured on the CM4 Sensor Chip (GE Healthcare) on which a suitable amount of Protein L (ACTIGEN) was suitably immobilized by amine coupling. Next, diluted human FcRn and a running buffer used as a blank were injected to allow the human FcRn to interact with the antibody captured on the sensor chip. A buffer consisting of 50 mmol/L sodium phosphate, 150 mmol/L NaCl and 0.05% (w/v) Tween 20 (pH 7.0 or pH 7.4) was used for the running buffer, and each buffer was also used to dilute the human FcRn. 10 mmol/L glycine-HCl (pH 1.5) was used to regenerate the sensor chip. All measurements of binding were carried out at 25° C. The KD(M) of each antibody to human FcRn was calculated based on kinetics parameters, i.e., the association rate constant ka (1/Ms) and the dissociation rate constant kd (1/s) calculated from a sensorgram obtained by the measurement. The Biacore T100 or T200 Evaluation Software (GE Healthcare) was used to calculate each parameter.

T2 sequence (P08637 other isoform, or with tags, fused parts or gaps limits assumed): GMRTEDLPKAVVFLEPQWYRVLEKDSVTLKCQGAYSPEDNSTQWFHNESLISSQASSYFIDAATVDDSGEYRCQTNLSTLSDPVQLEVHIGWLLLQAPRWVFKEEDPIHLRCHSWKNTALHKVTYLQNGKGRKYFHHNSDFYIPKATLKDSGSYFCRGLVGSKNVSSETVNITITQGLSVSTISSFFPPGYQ
T4 sequence (A0A0B4J1G0 21-203): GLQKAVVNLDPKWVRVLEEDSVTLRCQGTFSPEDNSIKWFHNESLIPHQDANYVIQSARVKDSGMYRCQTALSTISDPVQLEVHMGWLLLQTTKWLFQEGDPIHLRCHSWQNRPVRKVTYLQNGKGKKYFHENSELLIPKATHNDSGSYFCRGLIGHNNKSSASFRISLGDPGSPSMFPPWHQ

KD(IIb) of the parent polypeptide/KD(IIb) of the altered polypeptide (human FcγRIIb [1]): 59.4 | Kd [2]: 27 µM | Kd [3]: 6.5 µM
B1: IL6R-BP194/IL6R-L (antibody, human IgG1)
heavy: QVQLQESGPGLVKPSETLSLTCAVSGHSISHDHAWSWVRQPPGEGLEWIGFISYSGITNYNPSLQGRVTISRDNSKNTLYLQMNSLRAEDTAVYYCARSLARTTAMDYWGEGTLVTVSSASTKGPSVFPLAPSSKSTSGGTAALGCLVKDYFPEPVTVSWNSGALTSGVHTFPAVLQSSGLYSLSSVVTVPSSSLGTQTYICNVNHKPSNTKVDKKVEPKSCDKTHTCPPCPAPDYLGDDSVFLFPPKPKDTLMISRTPEVTCVVVDVSDEDGEVKFNWYVDGVEVHNAKTKPREEQYNSTYRVVSVLTVLHQDWLNGKEYKCKVSNAALPKPIEKTISKAKGQPREPQVYTLPPSRDELTKNQVSLTCLVKGFYPSDIAVEWESNGQPENNYKTTPPVLDSDGSFFLYSKLTVDKSRWQQGNVFSCSVMHEALHNHYTQESLSLSP
light: DIQMTQSPSSLSASVGDRVTITCRASQDISSYLNWYQQKPGKAPKLLIYYTSRLHSGVPSRFSGSGSGTDFTFTISSLQPEDIATYYCQQGNTLPYTFGQGTKVEIK
notes: Anti-human IL-6 receptor human IgG1 variant; copies: 2 + 2

KD(IIb) of the parent polypeptide/KD(IIb) of the altered polypeptide (human FcγRIIb [1]): 41.8 | Kd [2]: 49 µM | Kd [3]: 2.1 µM
B2: IL6R-BP189/IL6R-L (antibody, human IgG1)
heavy: B1 heavy with D235E, Y236L
light: B1 light
notes: as for B1

KD(IIb) of the parent polypeptide/KD(IIb) of the altered polypeptide (human FcγRIIb [1]): 48.4 | Kd [3]: 9.2 µM
B3: IL6R-BP202/IL6R-L (antibody, human IgG1)
heavy: B1 heavy with D235E, Y236L, D270H, K332R
light: B1 light
notes: as for B1

KD(IIb) of the parent polypeptide/KD(IIb) of the altered polypeptide (human FcγRIIb [1]): 24.5 | Kd [2]: 66 µM | Kd [3]: 3 µM
B4: IL6R-BP184/IL6R-L (antibody, human IgG1)
heavy: B1 heavy with Y236L, D239G, D270H, A328K
light: B1 light
notes: as for B1

KD(IIb) of the parent polypeptide/KD(IIb) of the altered polypeptide (human FcγRIIb [1]): 77.1 | Kd [3]: 6.9 µM
B5: IL6R-BP201/IL6R-L (antibody, human IgG1)
heavy: B1 heavy with Y236L, D270H, A328K, K332R
light: B1 light
notes: as for B1

BINDING AMOUNT (RU) (mouse FcγRIV): -3.8 RU
B6: antibody with VH3-IgG1-F821 heavy chain and L(WT)-CK light chain (antibody)
heavy: QVQLQESGPGLVKPSETLSLTCAVSGHSISHDHAWSWVRQPPGEGLEWIGFISYSGITNYNPSLQGRVTISRDNSKNTLYLQMNSLRAEDTAVYYCARSLARTTAMDYWGEGTLVTVSSASTKGPSVFPLAPSSKSTSGGTAALGCLVKDYFPEPVTVSWNSGALTSGVHTFPAVLQSSGLYSLSSVVTVPSSSLGTQTYICNVNHKPSNTKVDKKVEPKSCDKTHTCPPCPAPELRGGPKVFLFPPKPKDTLYISRTPEVTCVVVDVSHEDPEVKFNWYVDGVEVHNAKTKPREEQYNSTYRVVSVLTVLHQDWLNGKEYKCKVSNKALPAPIEKTISKAKGQPREPQVYTLPPSRDELTKNQVSLTCLVKGFYPSDIAVEWESNGQPENNYKTTPPVLDSDGSFFLYSKLTVDKSRWQQGNVFSCSVMHEALHYHYTQKSLSLSP
light: not shown
notes: copies: 2 + 2

BINDING AMOUNT (RU) (mouse FcγRIV): 7.2 RU
B7: antibody with VH3-IgG1-F1009 heavy chain and L(WT)-CK light chain (antibody)
heavy: B6 heavy with T252V, T309Q, V310P, Q313A, Y438V
light: not shown
notes: copies: 2 + 2

KD(IIb) of the parent polypeptide/KD(IIb) of the altered polypeptide (human FcγRIIb [4]): 5.5
B8: IL6R-BP133/IL6R-L (antibody, human IgG1)
heavy: B1 heavy with D239G, D270H, G273P, A328K
light: B1 light
notes: copies: 2 + 2

BINDING AMOUNT (RU) (mouse FcγRIV): 230 RU
B9: antibody with VH3-IgG1-F890 heavy chain and L(WT)-CK light chain (antibody)
heavy: B6 heavy with R237L, K241S, Y438V
light: not shown
notes: copies: 2 + 2

Kd (human FcRn): 0.344 µM
B10: F1079 (antibody, human IgG1, kappa, name in EU numbering)
heavy: B6 heavy with R237L, K241S, E384N, N386S
light: not shown
notes: copies: 2 + 2

Kd (human FcRn): 0.257 µM
B11: F1099 (antibody, human IgG1, kappa, name in EU numbering)
heavy: B6 heavy with R237L, K241S, K328D, L330Y
light: not shown
notes: copies: 2 + 2

BINDING AMOUNT (RU) (mouse FcγRIV): -7.3 RU
B12: antibody with VH3-IgG1-F939 heavy chain and L(WT)-CK light chain (antibody)
heavy: B6 heavy with Y438V
light: not shown
notes: copies: 2 + 2
